Experimental data taken from patent US11357817B2, “Immunoproteasome inhibitor” (The Regents of the University of California, priority 2017, dated 2022).

What was measured:
[1] = biological target: Succinyl-Leu-Leu-Val-Tyr-aminocoumarin (Artificial Sequence)
[2] = biological target: 20S Plasmodium proteasome (Pf20S), enriched from P. falciparum schizont lysate (Plasmodium falciparum)
[3] = biological target: human constitutive 20S proteasome (human)
[4] = biological target: β5 subunit of the S. cerevisiae 20S proteasome (PRE2) with M45I (M120I in the pro-protein), lineage 2 (Saccharomyces cerevisiae)
[5] = biological target: β5 subunit of the S. cerevisiae 20S proteasome (PRE2), wild type (Saccharomyces cerevisiae)
[6] = biological target: 20S Plasmodium proteasome (Pf20S), enriched from P. falciparum schizont lysate (Plasmodium falciparum); remark: listed apart in the source
[7] = biological target: human constitutive 20S proteasome (human); remark: listed apart in the source
[8] = biological target: human constitutive 20S proteasome (human); assay: inactivation kinetics of c20S, Suc-LLVY-AMC activity assay, non-linear regression of Kobs
[9] = biological target: 20S Plasmodium proteasome (Pf20S), enriched from P. falciparum schizont lysate (Plasmodium falciparum); assay: inactivation kinetics of Pf20S, Suc-LLVY-AMC activity assay, non-linear regression of Kobs

Substance | hydrolysis of suc-LLVY-AMC (AMC release) (fold of the c20S rate) [1] | hydrolysis of z-LLE-AMC (AMC release) (fold lower than c20S) (z-LLE-AMC) | hydrolysis of z-LRR-AMC (AMC release) (fold of the c20S rate) (z-LRR-AMC) | Kinact [2] [s⁻¹] | Kinact/KI [2] [M⁻¹ s⁻¹] | Kinact [3] [s⁻¹] | Kinact/KI [3] [M⁻¹ s⁻¹] | average IC50 (uM) of yeast growth, resistant lineage 2 [4] [µM] | average IC50 (uM) of yeast growth, parental GM strain [5] [µM] | inhibition of β5, β1 and β2 activity at 150 nM inhibitor (% reduction of β5 activity) [6] | inhibition of β5, β1 and β2 activity at 150 nM inhibitor (% inhibition of β5 activity) [7] | Ki [8] [µM] | Ki [9] [µM]
20S Plasmodium proteasome (Pf20S), enriched from P. falciparum schizont lysate (enzyme) | < 2 | 19 | < 2 | – | – | – | – | – | – | – | – | – | –
Carmaphycin B (peptide) | – | – | – | 0.000192 | 864 | 0.00168 | 4480 | 52.7 | 24.3 | 45 | 98 | 0.375 | 0.223
